Experimental data published in paper doi:10.1101/2022.12.21.521423 (bioRxiv, 2022).

What was measured:
[1] = molecular target: HA-LRRC37B-ECTO (human, UniProt Q96QE4 28-905); assay: cell-surface binding assay
[2] = molecular target: HA-LRRC37B-LRR-ECTO (human, UniProt Q96QE4 468-841); assay: cell-surface binding assay
HA-LRRC37B-LRR-ECTO, sequence (Q96QE4 468-841): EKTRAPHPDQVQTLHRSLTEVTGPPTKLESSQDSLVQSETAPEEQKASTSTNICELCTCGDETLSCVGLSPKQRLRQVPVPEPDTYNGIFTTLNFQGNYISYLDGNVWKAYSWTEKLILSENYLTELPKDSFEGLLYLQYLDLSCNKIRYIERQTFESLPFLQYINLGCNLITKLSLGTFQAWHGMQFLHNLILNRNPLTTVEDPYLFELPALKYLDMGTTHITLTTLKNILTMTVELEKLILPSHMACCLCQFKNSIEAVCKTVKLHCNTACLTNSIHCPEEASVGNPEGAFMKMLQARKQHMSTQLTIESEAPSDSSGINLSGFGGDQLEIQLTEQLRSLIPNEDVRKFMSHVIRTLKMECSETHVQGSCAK

HA-LRRC37B-ECTO, sequence (Q96QE4 28-905): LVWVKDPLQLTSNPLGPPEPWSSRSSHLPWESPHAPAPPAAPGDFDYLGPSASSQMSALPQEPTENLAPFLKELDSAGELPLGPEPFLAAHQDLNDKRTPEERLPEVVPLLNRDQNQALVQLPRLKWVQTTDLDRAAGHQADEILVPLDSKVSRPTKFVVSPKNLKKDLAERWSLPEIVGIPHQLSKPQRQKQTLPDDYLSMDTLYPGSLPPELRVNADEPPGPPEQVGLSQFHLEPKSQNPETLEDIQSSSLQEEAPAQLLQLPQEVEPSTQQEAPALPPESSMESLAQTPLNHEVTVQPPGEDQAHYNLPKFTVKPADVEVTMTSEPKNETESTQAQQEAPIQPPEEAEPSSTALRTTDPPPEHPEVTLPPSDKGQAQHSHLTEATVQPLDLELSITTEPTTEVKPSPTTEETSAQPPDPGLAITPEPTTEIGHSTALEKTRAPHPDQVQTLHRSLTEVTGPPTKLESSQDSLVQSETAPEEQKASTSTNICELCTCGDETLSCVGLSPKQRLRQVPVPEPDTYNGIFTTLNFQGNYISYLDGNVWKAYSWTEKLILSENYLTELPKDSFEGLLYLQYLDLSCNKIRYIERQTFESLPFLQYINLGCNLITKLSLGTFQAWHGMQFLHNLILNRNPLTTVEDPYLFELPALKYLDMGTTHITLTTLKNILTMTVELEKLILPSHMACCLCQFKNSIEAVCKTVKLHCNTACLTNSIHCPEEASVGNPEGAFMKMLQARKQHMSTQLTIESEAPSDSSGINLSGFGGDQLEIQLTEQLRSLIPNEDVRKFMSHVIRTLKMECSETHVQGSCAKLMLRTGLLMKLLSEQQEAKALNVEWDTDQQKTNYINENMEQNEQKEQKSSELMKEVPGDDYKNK

B1: FGF13A ExonS-biotin (peptide)
peptide: MAAAIASSLIRQKRQAREREKSNACKCVSSPSKGKTSCDKNKLNVFSRVKLFGSKKRRRRRPE
modifications: also: biotin (position not given here)
Binder B1 has a Kd [1] of 2.29 ± 1.04 nM and a Kd [2] of 1.18 ± 0.718 nM.
